Data as given in patent publication US20210238276A1 (INTEGRAL MOLECULAR, published 2021).
Blank lines part the entries; values can stand above or below the molecule they belong to.

Legend:
[1] = target: T1, hsGLUT4 R169A (human, UniProt P14672 1-509); assay: flow cytometry, alanine-scan library in HEK-293T
T1 sequence: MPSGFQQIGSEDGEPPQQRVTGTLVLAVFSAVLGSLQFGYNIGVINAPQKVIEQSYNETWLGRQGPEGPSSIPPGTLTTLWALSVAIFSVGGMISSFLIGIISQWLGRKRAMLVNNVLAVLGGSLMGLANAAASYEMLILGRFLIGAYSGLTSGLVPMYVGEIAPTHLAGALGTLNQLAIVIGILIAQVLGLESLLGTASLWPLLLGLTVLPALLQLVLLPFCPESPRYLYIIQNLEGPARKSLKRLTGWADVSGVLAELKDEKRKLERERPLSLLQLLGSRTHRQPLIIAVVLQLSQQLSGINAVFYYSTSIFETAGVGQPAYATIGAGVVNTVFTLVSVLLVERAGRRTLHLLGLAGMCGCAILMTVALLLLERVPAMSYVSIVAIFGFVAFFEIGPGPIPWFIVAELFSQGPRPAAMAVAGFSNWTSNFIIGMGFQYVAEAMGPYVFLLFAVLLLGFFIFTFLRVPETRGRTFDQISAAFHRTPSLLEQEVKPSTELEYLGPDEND
Procedure: (§1) Because of the state-dependence of the isolated MAbs, we next wished to understand the mechanism by which each MAb could recognize GLUT4 in its different conformations. The residues required for binding of each MAb were determined using shotgun mutagenesis comprehensive alanine scanning (Davidson E & Doranz B J (2014) A High-Throughput Shotgun Mutagenesis Approach to Mapping B-cell Antibody Epitopes. Immunology, which is hereby incorporated by reference in its entirety). All residues of hsGLUT4 were individually mutated to alanine, with existing alanines changed to serines. Mutations were obtained for 508 of the 509 residues of GLUT4 (excluding the initiating methionine). The entire mutation library was transfected into human HEK-293T cells in a 384-well array format (one clone per well) and assessed for immunoreactivity using high-throughput flow cytometry.
(§2) HEK-293T cells were transfected by CaPO₄ with plasmids in 6-well culture plates (Falcon) at 750,000 cells/well. At 48 hours post transfection, cells were stained with anti-V5 and anti-GLUT4 MAbs (purified scFv, 2 μg/ml) followed by biotinylated goat anti-mouse or human antibody (1:500) and streptavidin-PerCP (1:500). Fluorescence was detected using an Intellicyt high-throughput flow cytometer (HTFC; Intellicyt, Albuquerque, N. Mex.). For cell permeabilization, cells were treated with saponin at 0.1% in PBS for 20 minutes. To discriminate intact (live) and permeabilized (dead) cells without the use of detergent, propidium iodide (PI) was added to HEK-293T cells at 1 ug/ml just prior to flow cytometry. Where indicated, cytochalasin B (Sigma) was used at a final concentration of 10 uM and phloretin (Sigma) was used at a final concentration of 100 uM, each added in 10% NGS for 30 minutes prior to antibody staining as well as included with the primary antibody.

[2] = target: T2, hsGLUT4 I313A (human, UniProt P14672 1-509); assay: flow cytometry, alanine-scan library in HEK-293T
T2 sequence: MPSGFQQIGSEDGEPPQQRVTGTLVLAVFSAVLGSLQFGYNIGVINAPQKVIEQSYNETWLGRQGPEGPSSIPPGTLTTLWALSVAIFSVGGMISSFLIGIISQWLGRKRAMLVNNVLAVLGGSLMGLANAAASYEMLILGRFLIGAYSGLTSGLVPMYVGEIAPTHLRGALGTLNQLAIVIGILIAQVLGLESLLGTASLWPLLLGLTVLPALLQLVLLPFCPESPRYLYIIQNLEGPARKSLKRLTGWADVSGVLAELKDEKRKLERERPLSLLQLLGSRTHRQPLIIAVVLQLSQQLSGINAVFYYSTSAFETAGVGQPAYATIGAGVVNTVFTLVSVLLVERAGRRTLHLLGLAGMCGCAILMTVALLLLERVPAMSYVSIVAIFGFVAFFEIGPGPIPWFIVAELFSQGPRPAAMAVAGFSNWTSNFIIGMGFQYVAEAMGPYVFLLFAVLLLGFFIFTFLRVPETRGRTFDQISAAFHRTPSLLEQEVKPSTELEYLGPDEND
Procedure: as §1, §2

[3] = target: T3, human GLUT2 (hsGLUT2) (human, UniProt P11168 1-524); assay: flow cytometry, transfected HEK-293T
T3 construct: whole, on cells
T3 sequence (looked up): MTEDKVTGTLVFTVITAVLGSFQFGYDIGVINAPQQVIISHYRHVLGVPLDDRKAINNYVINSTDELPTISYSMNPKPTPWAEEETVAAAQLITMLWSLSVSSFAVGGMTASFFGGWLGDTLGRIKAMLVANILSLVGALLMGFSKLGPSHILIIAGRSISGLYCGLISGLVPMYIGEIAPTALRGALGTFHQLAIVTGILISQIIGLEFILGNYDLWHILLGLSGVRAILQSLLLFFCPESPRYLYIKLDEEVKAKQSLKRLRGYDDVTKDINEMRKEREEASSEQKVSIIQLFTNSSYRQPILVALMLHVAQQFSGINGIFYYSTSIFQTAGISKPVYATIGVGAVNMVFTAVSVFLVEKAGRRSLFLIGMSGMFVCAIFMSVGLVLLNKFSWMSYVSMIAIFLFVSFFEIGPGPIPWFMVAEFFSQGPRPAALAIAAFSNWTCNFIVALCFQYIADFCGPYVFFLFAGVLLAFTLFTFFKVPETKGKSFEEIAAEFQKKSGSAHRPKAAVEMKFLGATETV
Procedure: as §2

[4] = target: T4, human GLUT3 (hsGLUT3) (human, UniProt P11169 1-496); assay: flow cytometry, transfected HEK-293T
T4 construct: whole, on cells
T4 sequence (looked up): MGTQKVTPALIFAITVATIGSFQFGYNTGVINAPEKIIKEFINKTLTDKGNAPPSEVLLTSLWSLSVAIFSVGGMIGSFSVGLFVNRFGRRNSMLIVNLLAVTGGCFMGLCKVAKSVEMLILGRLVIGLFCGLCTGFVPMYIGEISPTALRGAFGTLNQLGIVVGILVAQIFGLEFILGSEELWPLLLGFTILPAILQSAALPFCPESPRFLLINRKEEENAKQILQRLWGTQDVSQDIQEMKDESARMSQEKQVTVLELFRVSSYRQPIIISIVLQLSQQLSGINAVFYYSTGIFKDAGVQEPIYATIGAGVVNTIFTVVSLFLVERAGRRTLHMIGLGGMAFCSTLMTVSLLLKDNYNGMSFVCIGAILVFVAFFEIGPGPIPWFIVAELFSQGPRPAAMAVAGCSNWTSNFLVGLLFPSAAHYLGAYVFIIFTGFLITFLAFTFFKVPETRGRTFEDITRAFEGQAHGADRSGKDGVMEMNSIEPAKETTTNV
Procedure: as §2

Molecule: 1F8 (antibody)
- % of binding to wild type GLUT4 [1]: 84%
- % of binding to wild type GLUT4 [2]: 85%

B2: AB108 (Fc fusion)
scFv: ALTQPSSVSANLGGTVKITCSGSSGSYGWYQQKAPGSAPVTLIYRNDKRPSDIPSRFSGSESGSTGTLTITGVQAEDEAVYFCGGYDSSAGYAAFGAGTTLTVLGQSSRSSGGGGSSGGGGSAVTLDESGGGLQTPGGALSLVCKASGFTFSSHGMGWVRQAPGKGLEWVGSISTGRYTFYAPAVKGRATISRDNGQSTLRLQLNNLRAEDTGTYYCTKCAGLNGCGGGEIDAWGHGTEVIVSS
notes: Bivalent scFv-Fc; also called MAb AB108; not shown: Fc fragment of human IgG1, cloned in frame with the scFv
- binding result [3]: no binding (tested: 2 µg/ml)
- binding result [4]: no binding (tested: 2 µg/ml)
- % of binding to wild type GLUT4 [1]: 108%
- % of binding to wild type GLUT4 [2]: 39%

B3: AB111 (Fc fusion)
scFv: ALTQPSSVSANPGETVKITCSGSGSWYGWFQQKSPGSAPVTVIYSNDKRPSDIPSRFSGSKSGSTSTLTITGVQVEDEAVYYCGNWDIFGAGTTLTVLGQSSRSSGGGGSSGGGGSAVTLDESGGGLQTPGGALSLVCKASGFTFSSHGMGWVRQAPGKGLEWVASISTGRYTFYAPAVKGRATISRDNGQSTVRLQLNNLRAEDTATYYCTKCAGLNGCGGGEIDAWGHGTEVIVSS
notes: Bivalent scFv-Fc; also called MAb AB111; not shown: Fc fragment of human IgG1, cloned in frame with the scFv
- binding result [3]: no binding (tested: 2 µg/ml)
- binding result [4]: no binding (tested: 2 µg/ml)
- % of binding to wild type GLUT4 [1]: 97%
- % of binding to wild type GLUT4 [2]: 106%

Next, values leading:

- % of binding to wild type GLUT4 [1]: 119%
- % of binding to wild type GLUT4 [2]: 94%
B1: AB101 (scFv)
scFv: ALTQPSSVSANPGETVKITCSGSSNSYGWYQQKSPGSAPVTVIYYNDKRPSDIPSRFSGSKSDSTHTLTITGVRAEDEAVYFCGSYDSTYVGIFGAGTTLTVLGQSSRSSGGGGSSGGGGSAVTLDESGGGLQTPGGTLSLVCKASGFTFSSNAMGWVRQAPGKGLEWVAGISSDGRYTKYGSAVKGRATISRDNGQSTVRLQLNNLRAEDTGTYFCAKAFGNNYRRIYAGQIDAWGHGTEVIVSS
notes: Chicken-derived clone used as a control; the four lead clones were tested as scFv-human IgG1 Fc; also called MAb AB101

- binding result [3]: no binding (tested: 2 µg/ml)
- binding result [4]: no binding (tested: 2 µg/ml)
B4: AB105 (Fc fusion)
scFv: ALTQPSSVSANPGETVEITCSGDSSYYGWYQQKSPGSAPVTVIYANTNRPSDIPSRFSGSASGSTATLTITGVQAEDEAVYYCGSADSTYAGIFGAGTTLTVLGQSSRSSGGGGSSGGGGSAVTLDESGGGLQTPGGALSLICKASGFTFSSYTMNWVRQAPGKGLEWVGVISNSGRTTNYGAAVQGRATISRDNGQSTVRLQLNNLRAEDTGTYYCAKSSASASCAWWAGRSYPCSANRIDAWGHGTEVIVSS
notes: Bivalent scFv-Fc; also called MAb AB105; not shown: Fc fragment of human IgG1, cloned in frame with the scFv
